The record followed here is patent US11673947B2, “Target tissue-specific antigen-binding molecule” (Chugai Seiyaku Kabushiki Kaisha, priority 2012, dated 2023).

One experiment has as its target T1, hIL-6R (Homo sapiens, UniProt P08887).
T1 sequence (P08887 20-355 limits assumed): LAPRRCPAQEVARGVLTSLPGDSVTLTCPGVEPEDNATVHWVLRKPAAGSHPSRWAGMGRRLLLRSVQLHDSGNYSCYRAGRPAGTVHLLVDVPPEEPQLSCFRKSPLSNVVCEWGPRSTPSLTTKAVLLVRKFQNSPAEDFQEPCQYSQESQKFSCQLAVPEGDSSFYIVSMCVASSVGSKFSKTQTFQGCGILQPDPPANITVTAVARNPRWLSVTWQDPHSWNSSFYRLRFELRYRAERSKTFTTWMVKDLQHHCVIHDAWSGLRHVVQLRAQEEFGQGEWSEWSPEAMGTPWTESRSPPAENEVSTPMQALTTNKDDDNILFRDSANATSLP
Put plainly: Phage ELISA, binding to hIL-6R in the presence or absence of SC. The note with it: in the presence of SC. As to the method: Culture supernatants containing phages were collected according to a conventional method (Methods Mol. Biol. (2002) 178, 133-145) from single colonies of E. coli obtained as described in (14-2). Phages purified by the method described in (2-4) were subjected to ELISA by the following procedure. A StreptaWell 96 microtiter plate (Roche) was coated overnight with 100 μl of TBS containing biotin-labeled hIL-6R. After biotin-labeled hIL-6R was removed by washing each well of the plate with TBST, the wells were blocked with 250 μl of 2% skim milk/TBS for one hour or more. 2% skim milk/TBS was removed, and then the prepared, purified phages were added to each well. The plate was allowed to stand at room temperature for one hour to allow binding of antibody-displaying phages to biotin-labeled hIL-6R in each well in the presence or absence of SC. After washing with TBST or SC/TBST, an HRP-conjugated anti-M13 antibody (Amersham Pharmacia Biotech) diluted with TBS or SC/TBS was added to each well. The plate was incubated for one hour. Following wash with TBST or SC/TBST, the TMB single solution (ZYMED) was added to each well. The chromogenic reaction in the solution of each well was terminated by adding sulfuric acid. Then, the developed color was assessed by measuring absorbance at 450 nm.

Another experiment deals with BaF/hIL-6R cells. Description: Flow cytometry, binding to membrane-type hIL-6R on BaF/hIL-6R cells. It is filed as cell-based. The procedure: 6RNMSC1-2_F02 antibody which has an antigen-binding activity in the presence of kynurenine as described in Example 14 was assessed for its binding to soluble hIL-6R. As a first step in assessing the ADCC activity of 6RNMSC1-2_F02 to hIL-6R-expressing cells, 6RNMSC1-2_F02 was evaluated as to whether it has the ability to bind to membrane-type hIL-6R expressed in hIL-6R-expressing cells. Specifically, the binding of 6RNMSC1-2_F02 to cells of the BaF/hIL-6R line (WO2012/073992) was assayed and analyzed using a flow cytometer. An appropriate number of BaF/hIL-6R cells were prepared and blocked with PBS containing 2% FBS on ice for one hour or more. Supernatant was removed from the blocked cells by centrifugation, and 100 μl of 6RNMSC1-2_F02 or the control antibody MRA (the heavy chain and light chain sequences are shown in SEQ ID NOs: 92 and 93, respectively) was added under two conditions: in the presence or absence of a final concentration of kynurenine at 100 μM. In this step, the antibodies were contacted with cell-membrane hIL-6R on ice for 30 minutes. […] Then, in the presence or absence of kynurenine, the complex was contacted with a secondary antibody (Beckman Coulter IM1627) that recognizes the antibody constant region. […] The binding of 6RNMSC1-2_F02 to the prepared cells was assayed and analyzed using the BD FACS cant II Flow Cytometer (BD).
(In general: Flow cytometry measures light scatter and fluorescence of single cells or particles in a stream.)

B1: 6RNMSC1-2_F02: antibody that binds to hIL-6R in the presence of kynurenine; SEQ ID NOs: 86 and 87 (antibody, listed as Homo sapiens, V domains shown)
VH: QVQLVQSGAEVKKPGSSVKVSCKASGGTFSSYAISWVRQAPGQGLEWMGGIIPIFGTANYAQKFQGRVTITADESTSTAYMELSSLRSEDTAVYYCARDAPVVARPRGAFDIWGQGTMVTVSS
VL: DIVMTQTPLSSPVTLGQPASISCRSSQSLVHSDGNTYLSWLQQRPGQPPRLLIHEISNRFSGVPDRFSGSGAGTNFTLKISRVEAEDVGVYYCMQATQFPRTFGQGTKVEIK
With B1, the “binding activity to hIL-6R in the presence of a small molecule cocktail (phage ELISA)” value with hIL-6R is given as “have binding activity”. Besides, the “fluorescence (binding to membrane-type hIL-6R)” value with BaF/hIL-6R cells (in the absence of kynurenine) is listed as “not detectable”; with BaF/hIL-6R cells (in the presence of 100 μM kynurenine), “fluorescence shift was observed”.
